Results as given in US20140274782A1, “AFFINITY REAGENTS AND METHODS FOR DETECTION, PURIFICATION, AND PROTEOMIC ANALYSIS OF METHYLATED PROTEINS” (The Board of Trustees of the Leland Stanford Junior …, priority 2013, published 2014).

T1: G9a and GLP (Homo sapiens, UniProt Q96KQ7+Q9H9B1)
T1 sequence (Q96KQ7 2-1210 limits assumed): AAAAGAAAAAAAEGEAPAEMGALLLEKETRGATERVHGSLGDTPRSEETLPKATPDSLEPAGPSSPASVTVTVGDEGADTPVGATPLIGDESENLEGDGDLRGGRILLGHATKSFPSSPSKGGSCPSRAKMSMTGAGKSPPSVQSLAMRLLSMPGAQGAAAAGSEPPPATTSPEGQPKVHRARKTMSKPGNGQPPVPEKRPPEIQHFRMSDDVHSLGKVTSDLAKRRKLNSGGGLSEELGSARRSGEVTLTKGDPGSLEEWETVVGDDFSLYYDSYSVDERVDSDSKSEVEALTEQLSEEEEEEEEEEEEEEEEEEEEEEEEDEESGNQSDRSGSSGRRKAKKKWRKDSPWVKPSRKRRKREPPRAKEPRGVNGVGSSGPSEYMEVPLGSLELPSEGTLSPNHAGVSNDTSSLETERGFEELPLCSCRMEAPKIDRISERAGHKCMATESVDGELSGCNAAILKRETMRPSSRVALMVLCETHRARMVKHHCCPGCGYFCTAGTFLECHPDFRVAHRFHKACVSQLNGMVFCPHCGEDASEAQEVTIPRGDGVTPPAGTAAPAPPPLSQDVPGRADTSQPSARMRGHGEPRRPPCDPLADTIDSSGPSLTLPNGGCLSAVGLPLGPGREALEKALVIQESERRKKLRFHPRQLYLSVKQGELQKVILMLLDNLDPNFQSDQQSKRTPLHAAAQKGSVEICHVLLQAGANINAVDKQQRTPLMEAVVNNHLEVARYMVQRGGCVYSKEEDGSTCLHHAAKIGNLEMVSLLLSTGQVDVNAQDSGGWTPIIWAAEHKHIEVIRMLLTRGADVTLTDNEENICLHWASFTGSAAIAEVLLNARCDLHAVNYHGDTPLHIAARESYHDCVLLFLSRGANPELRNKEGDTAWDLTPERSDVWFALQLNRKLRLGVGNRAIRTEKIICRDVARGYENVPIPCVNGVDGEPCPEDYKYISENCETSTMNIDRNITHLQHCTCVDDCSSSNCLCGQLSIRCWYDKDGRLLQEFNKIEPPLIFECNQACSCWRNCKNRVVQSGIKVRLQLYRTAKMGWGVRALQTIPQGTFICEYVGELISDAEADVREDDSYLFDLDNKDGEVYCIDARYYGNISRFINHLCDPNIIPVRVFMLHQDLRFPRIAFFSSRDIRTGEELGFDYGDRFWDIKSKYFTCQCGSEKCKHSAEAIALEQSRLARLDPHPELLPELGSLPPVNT
T1 sequence (Q9H9B1 2-1298 limits assumed): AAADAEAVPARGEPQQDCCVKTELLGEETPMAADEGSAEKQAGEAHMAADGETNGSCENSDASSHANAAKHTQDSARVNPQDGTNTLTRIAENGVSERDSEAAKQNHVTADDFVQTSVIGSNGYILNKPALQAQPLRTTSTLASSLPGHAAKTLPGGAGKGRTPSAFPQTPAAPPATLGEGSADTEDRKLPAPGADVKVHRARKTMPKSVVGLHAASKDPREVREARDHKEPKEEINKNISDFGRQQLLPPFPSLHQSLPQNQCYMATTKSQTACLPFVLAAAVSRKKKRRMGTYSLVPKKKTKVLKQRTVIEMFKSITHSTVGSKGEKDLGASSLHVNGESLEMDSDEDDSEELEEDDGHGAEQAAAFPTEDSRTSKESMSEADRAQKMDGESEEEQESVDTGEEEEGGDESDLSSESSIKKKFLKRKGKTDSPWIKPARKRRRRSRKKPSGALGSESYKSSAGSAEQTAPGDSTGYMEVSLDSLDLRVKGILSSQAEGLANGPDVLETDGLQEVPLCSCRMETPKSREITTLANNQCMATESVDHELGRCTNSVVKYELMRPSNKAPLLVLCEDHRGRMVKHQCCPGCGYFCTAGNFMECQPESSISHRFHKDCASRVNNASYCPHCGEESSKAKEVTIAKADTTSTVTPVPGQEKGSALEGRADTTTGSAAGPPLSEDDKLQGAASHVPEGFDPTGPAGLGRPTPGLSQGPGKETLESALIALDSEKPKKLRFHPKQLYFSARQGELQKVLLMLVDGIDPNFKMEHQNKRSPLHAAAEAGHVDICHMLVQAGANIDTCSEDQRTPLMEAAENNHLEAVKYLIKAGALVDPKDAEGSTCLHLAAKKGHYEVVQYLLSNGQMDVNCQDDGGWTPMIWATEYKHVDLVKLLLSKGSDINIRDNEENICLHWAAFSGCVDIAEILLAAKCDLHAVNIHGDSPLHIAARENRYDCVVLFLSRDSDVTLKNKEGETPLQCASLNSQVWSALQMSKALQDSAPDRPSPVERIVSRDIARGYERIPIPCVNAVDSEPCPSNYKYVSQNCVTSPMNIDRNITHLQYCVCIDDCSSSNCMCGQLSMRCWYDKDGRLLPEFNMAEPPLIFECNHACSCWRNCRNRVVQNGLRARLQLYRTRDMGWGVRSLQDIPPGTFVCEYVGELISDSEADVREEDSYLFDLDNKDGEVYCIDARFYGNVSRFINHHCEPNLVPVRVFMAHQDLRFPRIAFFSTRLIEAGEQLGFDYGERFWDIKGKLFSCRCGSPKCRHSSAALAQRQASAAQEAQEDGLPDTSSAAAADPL


Key:
3×MBT domain of L3MBTL1 = assay: Triple SILAC pull-down, 3xMBT/3xMBTD355N ratio (cytoplasmic, nuclear and chromatin fractions of 293T cells); type: binding, human; conditions: SILAC ratio, pull-down 3xMBT vs 3xMBTD355N; for 3xMBT/D355N UNC Heavy: experiment with UNC0638 in heavy SILAC media; for 3xMBT/D355N UNC Light: experiment with UNC0638 in light SILAC media;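 on all read-outs here: proteins quantified with MaxQuant, requiring at least two unique peptides and quantification in both label directions, normalized to the mean of proteins from a digested loading control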
G9a and GLP = target: T1, G9a and GLP; assay: Triple SILAC pull-down after UNC0638 treatment of 293T cells, DMSO/UNC0638 ratio of protein captured by 3×MBT; type: cell-based; design: endogenous in cells; host or cells: HEK 293T; conditions: for Relative to UNC0638 UNC Heavy / Relative to UNC0638 UNC Light: SILAC ratio DMSO/UNC0638 of protein pulled down with 3xMBT; for Relative to UNC0638 UNC Heavy: UNC0638 in heavy SILAC media; for Relative to UNC0638 UNC Light: UNC0638 in light SILAC media; for Relative to UNC0638 Average: average of UNC Light and UNC Heavy experiments;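 on all read-outs here: mass spectrometry (Q-Exactive) SILAC quantitation, DMSO/UNC0638 ratio computed after subtracting 3×MBTD355N mutant pull-down background, only proteins with at least twofold 3×MBT over mutant signal considered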

Relative to UNC0638 UNC Heavy (G9a and GLP)	Relative to UNC0638 UNC Light (G9a and GLP)	Relative to UNC0638 Average (G9a and GLP)	Molecule	3xMBT/D355N UNC Heavy (3×MBT domain of L3MBTL1)	3xMBT/D355N UNC Light (3×MBT domain of L3MBTL1)
0.96 log base 2	−0.22 log base 2	0.37 log base 2	RRM1 (protein, UniProt P23921 1-792, looked up) Ribonucleoside-diphosphate …: MHVIKRDGRQERVMFDKITSRIQKLCYGLNMDFVDPAQITMKVIQGLYSGVTTVELDTLAAETAATLTTKHPDYAILAARIAVSNLHKETKKVFSDVMEDLYNYINPHNGKHSPMVAKSTLDIVLANKDRLNSAIIYDRDFSYNYFGFKTLERSYLLKINGKVAERPQHMLMRVSVGIHKEDIDAAIETYNLLSERWFTHASPTLFNAGTNRPQLSSCFLLSMKDDSIEGIYDTLKQCALISKSAGGIGVAVSCIRATGSYIAGTNGNSNGLVPMLRVYNNTARYVDQGGNKRPGAFAIYLEPWHLDIFEFLDLKKNTGKEEQRARDLFFALWIPDLFMKRVETNQDWSLMCPNECPGLDEVWGEEFEKLYASYEKQGRVRKVVKAQQLWYAIIESQTETGTPYMLYKDSCNRKSNQQNLGTIKCSNLCTEIVEYTSKDEVAVCNLASLALNMYVTSEHTYDFKKLAEVTKVVVRNLNKIIDINYYPVPEACLSNKRHRPIGIGVQGLADAFILMRYPFESAEAQLLNKQIFETIYYGALEASCDLAKEQGPYETYEGSPVSKGILQYDMWNVTPTDLWDWKVLKEKIAKYGIRNSLLIAPMPTASTAQILGNNESIEPYTSNIYTRRVLSGEFQIVNPHLLKDLTERGLWHEEMKNQIIACNGSIQSIPEIPDDLKQLYKTVWEISQKTVLKMAAERGAFIDQSQSLNIHIAEPNYGKLTSMHFYGWKQGLKTGMYYLRTRPAANPIQFTLNKEKLKDKEKVSKEEEEKERNTAAMVCSLENRDECLMCGS	1.23 log base 2	0.94 log base 2
0.36 log base 2	0.37 log base 2	0.36 log base 2	PPP1R10 (protein, UniProt Q96QC0 1-940, looked up) Serine/threonine-protein …: MGSGPIDPKELLKGLDSFLNRDGEVKSVDGISKIFSLMKEARKMVSRCTYLNILLQTRSPEILVKFIDVGGYKLLNNWLTYSKTTNNIPLLQQILLTLQHLPLTVDHLKQNNTAKLVKQLSKSSEDEELRKLASVLVSDWMAVIRSQSSTQPAEKDKKKRKDEGKSRTTLPERPLTEVKAETRAEEAPEKKREKPKSLRTTAPSHAKFRSTGLELETPSLVPVKKNASTVVVSDKYNLKPIPLKRQSNVAAPGDATPPAEKKYKPLNTTPNATKEIKVKIIPPQPMEGLGFLDALNSAPVPGIKIKKKKKVLSPTAAKPSPFEGKTSTEPSTAKPSSPEPAPPSEAMDADRPGTPVPPVEVPELMDTASLEPGALDAKPVESPGDPNQLTRKGRKRKSVTWPEEGKLREYFYFELDETERVNVNKIKDFGEAAKREILSDRHAFETARRLSHDNMEEKVPWVCPRPLVLPSPLVTPGSNSQERYIQAEREKGILQELFLNKESPHEPDPEPYEPIPPKLIPLDEECSMDETPYVETLEPGGSGGSPDGAGGSKLPPVLANLMGSMGAGKGPQGPGGGGINVQEILTSIMGSPNSHPSEELLKQPDYSDKIKQMLVPHGLLGPGPIANGFPPGGPGGPKGMQHFPPGPGGPMPGPHGGPGGPVGPRLLGPPPPPRGGDPFWDGPGDPMRGGPMRGGPGPGPGPYHRGRGGRGGNEPPPPPPPFRGARGGRSGGGPPNGRGGPGGGMVGGGGHRPHEGPGGGMGNSSGHRPHEGPGGGMGSGHRPHEGPGGSMGGGGGHRPHEGPGGGISGGSGHRPHEGPGGGMGAGGGHRPHEGPGGSMGGSGGHRPHEGPGHGGPHGHRPHDVPGHRGHDHRGPPPHEHRGHDGPGHGGGGHRGHDGGHSHGGDMSNRPVCRHFMMKGNCRYENNCAFYHPGVNGPPLP	4.73 log base 2	2.57 log base 2
0.50 log base 2	0.26 log base 2	0.38 log base 2	SEPT7 (protein, UniProt Q16181 2-437, looked up) Septin-7: SVSARSAAAEERSVNSSTMVAQQKNLEGYVGFANLPNQVYRKSVKRGFEFTLMVVGESGLGKSTLINSLFLTDLYSPEYPGPSHRIKKTVQVEQSKVLIKEGGVQLLLTIVDTPGFGDAVDNSNCWQPVIDYIDSKFEDYLNAESRVNRRQMPDNRVQCCLYFIAPSGHGLKPLDIEFMKRLHEKVNIIPLIAKADTLTPEECQQFKKQIMKEIQEHKIKIYEFPETDDEEENKLVKKIKDRLPLAVVGSNTIIEVNGKRVRGRQYPWGVAEVENGEHCDFTILRNMLIRTHMQDLKDVTNNVHYENYRSRKLAAVTYNGVDNNKNKGQLTKSPLAQMEEERREHVAKMKKMEMEMEQVFEMKVKEKVQKLKDSEAELQRRHEQMKKNLEAQHKELEEKRRQFEDEKANWEAQQRILEQQNSSRTLEKNKKKGKIF	2.75 log base 2	2.54 log base 2
−0.08 log base 2	0.76 log base 2	0.34 log base 2	SRP68 (protein, UniProt Q9UHB9 1-627, looked up) Signal recognition particle …: MAAEKQVPGGGGGGGSGGGGGSGGGGSGGGRGAGGEENKENERPSAGSKANKEFGDSLSLEILQIIKESQQQHGLRHGDFQRYRGYCSRRQRRLRKTLNFKMGNRHKFTGKKVTEELLTDNRYLLLVLMDAERAWSYAMQLKQEANTEPRKRFHLLSRLRKAVKHAEELERLCESNRVDAKTKLEAQAYTAYLSGMLRFEHQEWKAAIEAFNKCKTIYEKLASAFTEEQAVLYNQRVEEISPNIRYCAYNIGDQSAINELMQMRLRSGGTEGLLAEKLEALITQTRAKQAATMSEVEWRGRTVPVKIDKVRIFLLGLADNEAAIVQAESEETKERLFESMLSECRDAIQVVREELKPDQKQRDYILEGEPGKVSNLQYLHSYLTYIKLSTAIKRNENMAKGLQRALLQQQPEDDSKRSPRPQDLIRLYDIILQNLVELLQLPGLEEDKAFQKEIGLKTLVFKAYRCFFIAQSYVLVKKWSEALVLYDRVLKYANEVNSDAGAFKNSLKDLPDVQELITQVRSEKCSLQAAAILDANDAHQTETSSSQVKDNKPLVERFETFCLDPSLVTKQANLVHFPPGFQPIPCKPLFFDLALNHVAFPPLEDKLEQKTKSGLTGYIKGIFGFRS	2.41 log base 2	3.28 log base 2
